The text below walks through data of publication PMC12413468 (Communications Biology, 2025).

Where no end group is shown, it is not given here. [ ]: non-standard residue; d: D form. pS = N[C@@H](COP(=O)(O)O)C(=O)O

Experiment [1] has as its target His6-tagged SPAK CCT domain (mouse SPAK 459–556) (mouse, UniProt Q9Z1W9 459-556). The experiment is described as follows: fluorescence polarisation. On the technique in general: Polarisation of emitted light reports the rotation of a fluorescent probe.
In experiment [2] the target is T1, His6-tagged OSR1 CCT domain (human OSR1 433–527) (human, UniProt O95747 433-527). Nature of the experiment: fluorescence polarisation.
The target in experiment [3] is T1, His6-tagged OSR1 CCT domain (human OSR1 …). Nature of the experiment: peptide or protein array.

T1 sequence (O95747 433-527): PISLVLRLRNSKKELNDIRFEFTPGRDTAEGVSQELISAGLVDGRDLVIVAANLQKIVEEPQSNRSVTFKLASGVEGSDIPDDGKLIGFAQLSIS

Broadly, the Ki is a measure of affinity in units of concentration, obtained from inhibition or displacement. Read a low Ki as higher affinity. As to QLVGRFQVTSSKE [Wild-type human WNK4 peptide 1012–1024 (QLVGRFQVTSSKE)], the inhibition constant (Ki) in experiment [1] was found to be 7.2 µM; in experiment [2], 12.9 µM.

As to QLVSRFQVTSSKE [WNK4 peptide 1012–1024 with the −2 glycine changed to serine], the binding result in experiment [1] and in experiment [2] was “binds” each time. QLVARFQVTSSKE [WNK4 peptide 1012–1024 with the −2 glycine changed to alanine (QLVARFQVTSSKE)]: the binding result in experiment [1] and in experiment [2] was “binds” each time.

Ac-QLVGRFQVTSSKE (also: covalently linked to the membrane) [Wild-type WNK4 1012–1024 base peptide on the peptide array]: in experiment [3], the binding result is “binds”. As for H-SAGRRFIVSPVPE-OH [Wild-type human WNK1 peptide 1253–1265 (NH3+-SAGRRFIVSPVPE-COO-)], the Ki turned out to be 2.5 µM in experiment [1] and 5.1 µM in experiment [2]. With SAGHHFIVSPVPE [WNK1 peptide 1253–1265 with the arginines replaced by histidine-histidine], the “fold decrease in affinity against wild type” value in experiment [1] and in experiment [2] was about 7 fold throughout. As to SAGKKFIVSPVPE [WNK1 peptide 1253–1265 with the arginines replaced by lysine-lysine], the Ki came to 4.2 µM in experiment [1] and 16.3 µM in experiment [2]. On to SAGHAFIVSPVPE [WNK1 peptide 1253–1265 with the arginines replaced by histidine-alanine], for which the “fold decrease in affinity against wild type” value in experiment [1] and in experiment [2] was 11 fold throughout.

As to SAGRRFIV[pS]PVPE [WNK1 peptide 1253–1265 with phosphoserine at the +3 position], the “fold decrease in affinity against the unphosphorylated peptide” value in experiment [1] and in experiment [2] was about 2.5 fold in each case.
